Molecular target: T1, soluble human GCGR extracellular domain (human, UniProt P47871 26-136, limits assumed)
T1 construct: also called soluble GCGR; glucagon receptor extracellular domain
Experiment: SPR (Biacore), purified antibody re-tested; format as described for the screen: antibody captured by anti-mouse Fc, soluble human GCGR extracellular domain as analyte, 25 C
Procedure: In addition, supernatants were screened for binding to human GCGR using a Biacore SPR system. Briefly, anti-mouse Fc antibody (Sigma-Aldrich) was immobilized on all four flow cells of a CM5 chip using amine coupling reagents (GE Healthcare LifeSciences). Hybridoma supernatants were diluted three-fold with PBS-P buffer (PBS containing 0.005% P20-PBS-P) and injected for 30 seconds over flow cells 2, 3 and 4 to capture the test antibodies and using flow cell 1 as a reference. The next step was an injection of soluble human GCGR extracellular domain (100 nM in PBS-P buffer) at a flow rate of 50 μL/min and monitoring of the binding kinetics at 25° C. Kinetic data were collected over time and fit using the simultaneous global fit equation to yield affinity constants (KD values) for each antibody.

T1 sequence (P47871 26-136 limits assumed): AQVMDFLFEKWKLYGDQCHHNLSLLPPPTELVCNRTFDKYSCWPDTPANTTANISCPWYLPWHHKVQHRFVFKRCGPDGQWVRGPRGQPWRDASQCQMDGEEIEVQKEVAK

Row | Kd | Binder
1 | 0.2 nM | 6B5 (antibody, V domains shown, Mouse hybridoma antibody, purified; also called anti-GCGR antibody 6B5) VH: QVQLQQSGTELVRPGTSVKISCKASGFTFTNHWLGWVKQRPGHGLEWIGDIYPGGYYINYNEKFKGKATLTADTSSSTAYMQLSSLTSEDSAVYFCARHTNYGSDYWGQGTTLTVSS VL: DVLMTQIPLSLPVSLGDQASISCRSSQSIVDSYGNTFLEWYLQKPGQSPKLLIYKVSNRLSGVPDRFSGTGAGTDFTLKISRVEAEDLGIYYCFQGSHVPWTFGGGTKLEIK
2 | 0.6 nM | 14F4 (antibody, V domains shown, Mouse hybridoma antibody, purified; also called anti-GCGR antibody 14F4) VH: QVQLQQSGAELVRPGTSVNMSCKATGYTFTNYWIGWVKQRPGHGLEWIGDIFPGGFYSNYNEKFKGKATLTTDTSSSTGYMQLSSLTSEDSAIYYCARIWDRGFDYWGQGTTLTVSS VL: DVLMTQSPLSLPVSLGDQASISCRSSQSIVDSYGNTYLEWYLQKPGQSPKLLIYKVSNRFSGVPDRFSGSGSGTDFTLKISRVEAEDRGLYYCFQGSHVPYTFGGGTKLEIK
3 | 0.2 nM | 13G9 (antibody, V domains shown, Mouse hybridoma antibody, purified; also called anti-GCGR antibody 13G9) VH: QVQLQQSGAELVRPGTSVKISCKASGYTFTNYWLGWVKQRPGHGLEWIGDIYPGGDYNNYNGKFKGKATLTADTSSSTAYIQLSSLTSEDSAVYFCVRSDDGYSWGQGTTLTVSS VL: DVLMTQTPLSLPVSLGDQASISCRSSQSIVDSYGNTYLEWYQQKPGQSPTLLIYKVSNRFAGVPDRFSGSGSGTDFTLKISRVEAEDLGVYYCFQGSHIPWTFGGGTKVEIK
